# In the DeepSol protein solubility set:
# Assay: soluble on expression in E. coli; label from the status in PepcDB or PDB records
row,Sequence,soluble on expression in E. coli
1,MSLIMTTFIQLHLLTAYAPANLNRDESGRPKTAFMGGVERLRVSSQSLKRAWRVSETFEAAMDGFMGKRTRRIGVDYVYRPMKDAGIEEKIAKSSSELIAKQFGKLKSDKDAKPEKNLEIEQIVHVSNHEISLIKQLVDTLIADKREPNDEEVKLLRKEQRSVDMALFDRMLASSPEFNVEAACQVSHALGVSAVTVESDFFTAVDDLNNKEEDAGSGHMGEQGFASALFYTYVCISRDLLVENLGGNEELAKRTIAALTETALTVSPTGKQNSFASRAYATYALAEVGQKQPRSLAAAFFQPVRDTDQIPAAITRLKQQRASFDSVYGNCADDYRELNVQEGTGSLAELLAFVSQEGHHHHHH,soluble
2,MNDTAGELEFVPLAANDDETVGQWLDLMALAAETGPRAAPPCNVDMVGSLRFAPPATALDDWVVRSGGRVVGALRLALPDGAPTARVDQLLVHPGRRRRGIGRALWAHARELARKHDRTTLTATVVESLPSGPAQDPGPAAFAAAMGAHRSDIPAGTHQWLDLDRHDPLADGVPAVPAGYSLVTWGTITPDEYAVPVSELELSLGAGPVDRAAQEVRTSYARQFETMRVGRGRRAYHTGAVHDATGALAGYTSVSKTTGNPAYALQGMTVVHREHRGHALGTLLKLANLEYVLRHEPEVRLVETANAEDNHPMIAVNAALGFEPYDRWVFWTAEAGPSD,soluble
3,MGSDKIHHHHHHMQFSPEQDNALKAVSAWLKEGRSPLFRLFGYAGTGKTTLARYFAETVDGSVQFTAFTGKAAQVLRSKGASNACTIHSLIYCPRGEEEVSDEVTGKKSIAPTFALNRRSAAAQAKLIIVDECSMVDEQLARDLMSFRTPILVLGDPGQLPPISGGGFFSNGVPDFLLSEIHRQARDNPIVRLAMDVREGRDIPYGNYGAARVVTRKEVHQQLVLDADQLLVGINRTRYLYNKRLRVLKGFTAAYPQAGDKLVCLRNDPAKGLLNGSLWKVMTSQKETVKPGVNLLVKPEESERGVVKIKLLKALFENPDSDISWQLKKRYDDFDYGYALTVHKAQGSQWNNVVLFDESFAFRDMSARWLYTGITRAAERLTIVR,not soluble
4,MDTSLIRELAELALAGSGQHCHEEALCIAEWLERLGQDEAARLIRISSLANQGRYQEALAFAHGNPWPALEPWFALCEWHLGLGAALDRRLAGLGGSSDPALADFAAGMRAQVRT,soluble
5,MWQAIAKQISEVTQQPFSISERESVNGGEINDCYMISNGSQRYFVKINEKAELPIFETEIESLTQLDKSDHIFVPSPIHIGTTKEHSFLVLNYLPTKSMDKDAFYELGVSLANHHLWGDQLEYGFDCDNYLGNVLQVNTWHRRWDCFFAEQRIGWQLQLLKEKGMVLGDIDTLVKNSKLILHNHQPKPALLHGDLWHGNIALSVKGPISYDPASYWGDAECDLAMVELFGGIQDSFFEGYESISSISEGFETRQHLYSLYHVLNHCNMFGGEYMFHAQQLIDKLNLNELEHHHHHH,not soluble
6,MELLCCEGTRHAPRAGPDPRLLGDQRVLQSLLRLEERYVPRASYFQCVQREIKPHMRKMLAYWMLEVCEEQRCEEEVFPLAMNYLDRYLSCVPTRKAQLQLLGAVCMLLASKLRETTPLTIEKLCIYTDHAVSPRQLRDWEVLVLGKLKWDLAAVIAHDFLAFILHRLSLPRDRQALVKKHAQTFLALCATDYTFAMYPPSMIATGSIGAAVQGLGACSMSGDELTELLAGITGTEVDCLRACQEQIEAALRESLREASQTSSSPAPKAPRGSSSQGPSQTSTPTDVTAIHLLEHHHHHH,not soluble
7,MKEYNYIFGPIPSRRMGNSLGISSIEKRSCTYSCVYCQLGRTKNLMKEPKKFFKTEDILEEFKEYLKEDVDIDVVTVVGEGEPTLSDDLEELILGLKAITDKPVAVITNGSMLVYEKVRKALKAADIVLPSLDAGDEETFRKINRPNAKIDFNKITEALVQFSKEYNGELWMETMIVKGFNDKTEELYAIRKILDRIDYDRLYINTPVRPPAESYVEEPSKEKLDEVIRILRGTSIQMLSSGTFFSEITDDFEAIKSIISRHPMNKFEVESFLNSRKCRDKEEVLRKLKNHADIDVVSYKNYTTYRLK,not soluble
8,MNVMRHSWLAVAGIAGLLAFPPVDACTLWGAAGTASMEGSLLAKNRDWKPDHAQSLRLLHPEHGYAYLGLYADNGSEPGIKAGVNQKGLAVVAAEASSLPRALRADSARHGVLTRLLRDYGSLDEVASAADKLFAQARPVFLLLADAGGLMQVEIGQHGRYRLIRQQSGTLAHTNHYADTSLLDGAQTIGPSSQARLERIRFLLDQHPAHTLSEFERLSRDRHDGPDNSLWRSGREHTLAGWRIALPAGAPPRLQLTLANPGRAERDGDYALDSAFWAQPARTLLPKLAAALEHHHHHH,soluble
9,MSLEKVGTIGVAIPSATHGFMGGLNFHAQDTIKRLQQVYPQLDFVLATAGNAGKMVNDIEDMVATRNISALVVLPFESEPLTSPVQAVKEAGIWVTVVDRGLSVEGIEDLYVAGDNPGFGRVAGEYFAQHLESGKKIVVLRGIPTTLDNERVEAFTAAIEGSGIEVLDMQHGNWNRDDAFNVMQDFLSKYPQIDAVWAADDDMAIGAMEAIAQAGRTEEMWVMGGAGMKEIIRRIADGDPQLPANVTYPPAQISTAIELTALKLVSSTPVSGRFIIGSQLVTPENAEQFYFPDSEGHHHHHH,soluble
10,MNSVITQKVSSGVTLYADTKTGGFMNRTILVPIDISDSELTQRVISHVEAEAKIDDAEVHFLTVIPSLPYYASLGLAYSAELPAMDDLKAEAKSQLEEIIKKFKLPTDRVHVHVEEGSPKDRILELAKKIPAHMIIIASHRPDITTYLLGSNAAAVVRHAECSVLVVR,not soluble
11,MSLGIRGLDLSDLFVSGASYKRLGSEEMMRSTFQKLDREIAAIFLGLSDGTISKAIEYSKVRTAFDHPLKDYSPIFDDLVSLKMEIDVLRFYLYGSGDEYSRALIKIKAKDLSLRATRVSLQTHGGYGYIHDFGIEKYYRDAMALSVYFGQDKYENMVLSDHIFGEAGGEGHHHHHH,not soluble
12,GEPPTQKPKKIVNAKKDVVNTKMFEELKSRLDTLSQEVALLKEQQALQTVCLKGTKVHMKCFLAFTQTKTFHEASEDCISRGGTLSTPQTGSENDALYEYLRQSVGNEAEIWLGLNDMAAEGTWVDMTGARIAYKNWETEITAQPDGGKTENCAVLSGAANGKWFDKRCRDQLPYICQFGIV,soluble
13,MGSDKIHHHHHHMRYLSKDILEEVITQRPSDSYKSNFGRVVLIGGNRQYGGAIIMSTEACINSGAGLTTVITDVKNHGPLHARCPEAMVVGFEETVLLTNVVEQADVILIGPGLGLDATAQQILKMVLAQHQKQQWLIIDGSAITLFSQGNFSLTYPEKVVFTPHQMEWQRLSHLPIEQQTLANNQRQQAKLGSTIVLKSHRTTIFHAGEPFQNTGGNPGMATGGTGDTLAGIIAGFLAQFKPTIETIAGAVYLHSLIGDDLAKTDYVVLPTKISQALPTYMKKYAQPHTAPDSELLEQKRSR,not soluble
14,MGSDKIHHHHHHVTSVSLGMPSAPPPVLAPRRKTRQIKVGSVGVGSDSPISVQSMTTTPTTDINATLQQIAELTASGCDIVRVACPSADDAEALPIIARKSQIPVIADIHFQPKYVFAAIEAGCAAVRVNPGNIRKFDDQVKEIARAAKDHGTSIRIGVNAGSLEPGILKKYGKATPEALVESAVWEASLFEEHGFHDFKISVKHNDPVIMVAAYEMLAEKGDWPLHLGVTEAGPAFQGTIKSATAFGALLSRGIGDTIRVSLSAPPVEEIKVGNQILQSLNLRPRKLEIVSCPSCGRAQVDVYTLAEQVTAGLEGMEIPLRVAVMGCVVNGPGEAREADLGVASGNGKGQIFVKGEVIKTVPESEIVETLIEEAMRIAEEMGEADGEDAVKGSPVVSVS,not soluble
15,MGSDKIHHHHHHMLTHSTNPRGGVVHAMQLSEALTALGHAVTLHAPDPKGTGFFRSPACGAACFPVPPALADMTALVEQRIADYIGHFEQADNRDFDVFHAHDGISGNALATLKSRGLIPSFVRTIHHIDQFEDPRLMVLQDRSIQRADAFLAVSAAWQAILRDSYGVDAKVVGNGVDNRRFSPAWSGEQTALRDRIGLHAGAVFLSIGGIEARKNTLGILDAFRQLRAVKPDAQLVIAGGVSLLDHRDYQEEFQSHLRALRDDAAAVHIIGAVSDDDMPNLYRLADALVFPSLKEGFGLVVLEAMASGVPAIVPSIAPFIDYLSGDDALWCDPLHSASIAEAMALALVPEIRERIIPRGLEVASRFTWRRVAEAHLSTYATLKEAAHA,not soluble
16,MSLTQFKKFAEHISSCFSPSAIQEFSRKSKIVKRKRMFTIDHLLWLCVWQEKNMGDSSLIDMCASLWQQFGIKISPEGLNQRFNEKSTAFLKLLFHSILEKQTPDLAAIQHAYSTHFNRIRILDSTSFQLPNTFSDKYPGNGCLMQLKSAEGHHHHHH,not soluble
